This experiment has as its target proprietary Ral effector protein (Ral-BP binding plate of the RalA G-LISA Activation Assay Kit). As to the kind of experiment: ELISA; RalA G-LISA Activation Assay Kit; purified RalA incubated in the presence or absence of 15 uM GTP for 1.5 h at 25 C, then 50 ng of the RalA/GTP mixture applied to the Ral-BP binding plate (effector immobilised); n = 3. Background: An ELISA detects its analyte on a solid surface through an enzyme-linked reagent.

Several values for one entry are separate records, joined by “and”; a condition that tells them apart may be missing. Equal values may be shown once.

B1: Flag-tagged mutant RalA (RALA c.G482A, p.Arg161Gln) (natural protein)
chain: MAANKPKGQNSLALHKVIMVGSGGVGKSALTLQFMYDEFVEDYEPTKADSYRKKVVLDGEEVQIDILDTAGQEDYAAIRDNYFRSGEGFLCVFSITEMESFAATADFREQILRVKEDENVPFLLVGNKSDLEDKRQVSVEEAKNRAEQWNVNYVETSAKTQANVDKVFFDLMREIRARKMEDSKEKNGKKKRKSLAKRIRERCCIL
B1: the downstream effector binding (G-LISA signal) was 3.24 and 3.33.

B2: Flag-tagged wild-type RalA (RALA, NM_005402) (natural protein)
chain: MAANKPKGQNSLALHKVIMVGSGGVGKSALTLQFMYDEFVEDYEPTKADSYRKKVVLDGEEVQIDILDTAGQEDYAAIRDNYFRSGEGFLCVFSITEMESFAATADFREQILRVKEDENVPFLLVGNKSDLEDKRQVSVEEAKNRAEQWNVNYVETSAKTRANVDKVFFDLMREIRARKMEDSKEKNGKKKRKSLAKRIRERCCIL
B2: the downstream effector binding (G-LISA signal) came to 1.74.

The record behind these values is PMC9280360.
